# Molecular target: the molecule itself
# Assay: cryo-EM structure; nanodisc-reconstituted GLIC-WT at pH 4.0; earlier dataset (ref. 44) reprocessed with symmetry expansion, focused classification and particle reorientation; C5 or no symmetry imposed
protein,measurement,value
"Gloeobacter violaceus proton-gated ion channel (GLIC), wild type (natural protein, GLIC, proton-gated pentameric ligand-gated ion channel of Gloeobacter violaceus; Homopentamer in DOPE/POPC/POPS nanodiscs; As I recall, the construct is the mature channel without its signal peptide, about 317 residues; also called GLIC-WT; WT; source: E. coli C41, purified (amylose resin, SEC), nanodisc-reconstituted) VSPPPPIADEPLTVNTGIYLIECYSLDDKAETFKVNAFLSLSWKDRRLAFDPVRSGVRVKTYEPEAIWIPEIRFVNVENARDADVVDISVSPDGTVQYLERFSARVLSPLDFRRYPFDSQTLHIYLIVRSVDTRNIVLAVDLEKVGKNDDVFLTGWDIESFTAVVKPANFALEDRLESKLDYQLRISRQYFSYIPNIILPMLFILFISWTAFWSTSYEANVTLVVSTLIAHIAFNILVETNLPKTPYMTYTGAIIFMIYLFYFVAVIEVTVQHYLKVESQPARAASITRASRIAFPVVFLLANIILAFLFFG",stoichiometry N,5

# From publication PMC12582304, “Asymmetric gating of a homopentameric ion channel GLIC revealed by cryo-EM” (Proceedings of the National Academy of Sciences of the …, 2025)
